In this series the target is β-amyloid peptide (1-42), P05067.
Sequence of β-amyloid peptide (1-42), P05067 (P05067 whole entry, looked up, tested part not stated): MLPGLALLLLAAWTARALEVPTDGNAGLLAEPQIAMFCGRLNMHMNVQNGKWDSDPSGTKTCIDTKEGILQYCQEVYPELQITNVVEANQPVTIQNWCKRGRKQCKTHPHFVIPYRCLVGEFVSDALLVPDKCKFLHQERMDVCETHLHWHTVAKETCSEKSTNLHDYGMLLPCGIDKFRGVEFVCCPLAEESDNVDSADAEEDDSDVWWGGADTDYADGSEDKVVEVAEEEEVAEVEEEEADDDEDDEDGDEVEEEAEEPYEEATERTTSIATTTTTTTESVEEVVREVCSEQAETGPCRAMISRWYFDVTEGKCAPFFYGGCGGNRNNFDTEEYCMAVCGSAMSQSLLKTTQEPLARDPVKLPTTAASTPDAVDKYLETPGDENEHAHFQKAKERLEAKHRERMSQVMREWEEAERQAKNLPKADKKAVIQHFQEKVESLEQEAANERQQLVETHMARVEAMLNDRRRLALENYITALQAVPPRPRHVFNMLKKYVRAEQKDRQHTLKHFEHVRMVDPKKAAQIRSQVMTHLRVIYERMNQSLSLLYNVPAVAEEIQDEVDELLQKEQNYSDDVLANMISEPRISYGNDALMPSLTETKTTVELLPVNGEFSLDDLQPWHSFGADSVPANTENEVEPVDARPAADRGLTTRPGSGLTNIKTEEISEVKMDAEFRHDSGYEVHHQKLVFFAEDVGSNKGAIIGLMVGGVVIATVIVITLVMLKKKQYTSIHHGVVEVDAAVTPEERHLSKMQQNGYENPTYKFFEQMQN

B1: Fab-neprilysin (humanized 3E10 Fab fused through a Gly-Ser linker to the human neprilysin ectodomain) (protein)
chain 1: EVQLQESGGGVVQPGGSLRLSCAASGFTFSNYGMHWIRQAPGKGLEWVSYISSGSSTIYYADSVKGRFTISRDNSKNTLYLQMNSLRSEDTAVYYCARRGLLLDYWGQGTLVTVSSASTKGPSVFPLAPSSKSTSGGTAALGCLVKDYFPEPVTVSWNSGALTSGVHTFPAVLQSSGLYSLSSVVTVPSSSLGTQTYICNVNHKPSNTKVDKKVEPKSCDKTHTGGSGGGSGGGSGGYDDGICKSSDCIKSAARLIQNMDATTEPCTDFFKYACGGWLKRNVIPETSSRYGNFDILRDELEVVLKDVLQEPKTEDIVAVQKAKALYRSCINESAIDSRGGEPLLKLLPDIYGWPVATENWEQKYGASWTAEKAIAQLNSKYGKKVLINLFVGTDDKNSVNHVIHIDQPRLGLPSRDYYECTGIYKEACTAYVDFMISVARLIRQEERLPIDENQLALEMNKVMELEKEIANATAKPEDRNDPMLLYNKMTLAQIQNNFSLEINGKPFSWLNFTNEIMSTVNISITNEEDVVVYAPEYLTKLKPILTKYSARDLQNLMSWRFIMDLVSSLSRTYKESRNAFRKALYGTTSETATWRRCANYVNGNMENAVGRLYVEAAFAGESKHVVEDLIAQIREVFIQTLDDLTWMDAETKKRAEEKALAIKERIGYPDDIVSNDNKLNNEYLELNYKEDEYFENIIQNLKFSQSKQLKKLREKVDKDEWISGAAVVNAFYSSGRNQIVFPAGILQPPFFSAQQSNSLNYGGIGMVIGHEITHGFDDNGRNFNKDGDLVDWWTQQSASNFKEQSQCMVYQYGNFSWDLAGGQHLNGINTLGENIADNGGLGQAYRAYQNYIKKNGEEKLLPGLDLNHKQLFFLNFAQVWCGTYRPEYAVNSIKTDVHSPGNFRIIGTLQNSAEFSEAFHCRKNSYMNPEKKCRVW
chain 2: DIQMTQSPSSLSASVGDRVTISCRASKSVSTSSYSYMHWYQQKPEKAPKLLIKYASYLQSGVPSRFSGSGSGTDFTLTISSLQPEDVATYYCQHSREFPWTFGAGTKLELKRTVAAPSVFIFPPSDEQLKSGTASVVCLLNNFYPREAKVQWKVDNALQSGNSQESVTEQDSKDSTYSLSSTLTLSKADYEKHKVYACEVTHQGLSSPVTKSFNRGEC
B1: the Abeta HPLC, per hr. (sample FabNEP 2.5) is 0.5 per hr; the Abeta HPLC, per hr. (sample FabNEP 3.6, pH 3.6 elution pool) is 0.61 per hr; the Abeta HPLC, per hr. (sample FabNEP 4.0, pH 4.0 elution pool) stood at 0.66 per hr; the Abeta HPLC, rate (sample FabNEP 2.5) (million sq unt/min) came out at 0.0104. For the same protein, the Abeta HPLC, rate (sample FabNEP 3.6, pH 3.6 elution pool) (million sq unt/min) came to 0.0137; the Abeta HPLC, rate (sample FabNEP 4.0, pH 4.0 elution pool) (million sq unt/min) was found to be 0.0175; the Abeta HPLC, units/µL (sample FabNEP 2.5) came to 0.001 units/µL; the Abeta HPLC, units/µL (sample FabNEP 3.6, pH 3.6 elution pool) is 0.0547 units/µL. The protein also displayed an Abeta HPLC, units/µL (sample FabNEP 4.0, pH 4.0 elution pool) of 0.035 units/µL; an Abeta HPLC, units/µg (sample FabNEP 2.5) of 0.008 units/µg; an Abeta HPLC, units/µg (sample FabNEP 3.6, pH 3.6 elution pool) of 0.01 units/µg; an Abeta HPLC, units/µg (sample FabNEP 4.0, pH 4.0 elution pool) of 0.011 units/µg. The “degradation of β-amyloid (1-42)” value is “The Fab portion does not inhibit degradation of β-amyloid (1-42)” and the “degradation of β-amyloid peptide (1-42), HPLC” value is “Fab-NEP degrades β-amyloid peptide (1-42). The Fab conjugate does not appear to inhibit neprilysin activity, as compared to yeast NEP (yNEP)”.

The values are drawn from US20210395716.
